± gives the standard deviation.

The nature of the data set: protein stability index of a GFP-peptide fusion (GPS, HEK-293T) (PSI 1-6); higher = more stable.
The mark [1] stands for this setting: treatment: DMSO, c terminus: a fixed tail appended.
Setting [2] is: treatment: MLN4924 1 uM, 8 h, c terminus: a fixed tail appended.
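Note: 24-mer peptide tiles fused after GFP, lentivirally expressed, FACS-sorted into six equal bins by GFP/DsRed ratio, decoded by Illumina sequencing, PSI is the read-weighted mean bin number.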

Consider ELPPSLRAPPPGGWPLQPRVQWG [ZMAT5], for which the protein stability index is, setting by setting: (treatment: DMSO, c terminus: native) 2.75 ± 0.33; (treatment: MLN4924 1 uM, 8 h, c terminus: native) 2.82 ± 0.099.

Turning to ELTSVTAWMLCKLLDKAGVPPGVV [ALDH8A1], the protein stability index turned out to be 2.98 ± 0.42 under setting [1] and 2.69 ± 0.52 under setting [2].

Regarding ENLDEAREQKEKSPPDQPAVPHPP [ADD1], the protein stability index is, setting by setting: under setting [1], 5.61 ± 0.15; under setting [2], 5.66 ± 0.28.

EPAARISPLGALQHGFFRRTADEA [DYRK1B]: the protein stability index was found to be 4.08 ± 0.13 under setting [1] and 3.89 ± 0.22 under setting [2].

On to EPGAGLGIGDMAFEGDMGAAGGDG [PSD2], for which the protein stability index amounted to 5.72 ± 0.23 under setting [1] and 5.61 ± 0.41 under setting [2].

Turning to EPIILPCSHNLCQACARNILVQTP [TRIM9], the protein stability index under setting [1] was 2.45 ± 0.18 and the protein stability index under setting [2] came out at 2.68 ± 0.23.

For the sequence EPLRILSKYHRFISFTLYLIGFCM [CDS2], the protein stability index came to 1.95 ± 0.32 under setting [1] and 1.96 ± 0.16 under setting [2].

EPSNKTIHAELSKLVKKHAAQRST [FKBP8]: the protein stability index turned out to be 4.49 ± 0.21 under setting [1] and 4.47 ± 0.3 under setting [2].

Regarding EPSWECKFDHIEVRDGPFGFSPII [NETO1], the protein stability index reads like this: under setting [1], 2.36 ± 0.36; under setting [2], 2.3 ± 0.22.

Take EPVAAEPKQSGSFRYLQGMLEAGE [PDLIM4]: the protein stability index under setting [1] was 4.6 ± 0.11 and the protein stability index under setting [2] stood at 4.6 ± 0.11.

EQDMERRKADFKAGKALVISGREV [ZC3H15]: the protein stability index was 4.8 ± 0.3 under setting [1] and 4.89 ± 0.18 under setting [2].

As to EQGKPVIPAAVLAGFTGSGPIQLW [ETS2], the protein stability index by setting is: under setting [1], 2.55 ± 0.43; under setting [2], 2.54 ± 0.16.

With ERLQLEYVDVVFANRPDPNTPMEE [KCNAB2], the protein stability index turned out to be 4.7 ± 0.23 under setting [1] and 4.75 ± 0.33 under setting [2].

As to ERRRRFNINDRIKELGTLIPKSSD [TFE3], the protein stability index by setting is: under setting [1], 4.04 ± 0.099; under setting [2], 4.09 ± 0.2.

Regarding ESAAFSQGSRSGVSGGSRSLNMSR [PHTF1], the protein stability index was 4.44 ± 0.17 under setting [1] and 4.5 ± 0.23 under setting [2].

Regarding ESFILDQDDLENPMLETASKLLLS [ANKRD17], the protein stability index was 3.99 ± 0.22 under setting [1] and 4.1 ± 0.38 under setting [2].

As for ESKGCFANTTPSGKSVSSSSSVET [SPATS1], the protein stability index by setting is: under setting [1], 5.18 ± 0.14; under setting [2], 5.19 ± 0.12.

Sequence ESLEPDAQVLMLGQILELPWKEET [FANCE] showed a protein stability index under setting [1] of 4.17 ± 0.11 and a protein stability index under setting [2] of 4.17 ± 0.33.

ETNRLGRLINHSKCGNCQTKLHDI [KMT5A] gave a protein stability index under setting [1] of 2.57 ± 0.36 and a protein stability index under setting [2] of 2.75 ± 0.23.

On to EVGKSFERHKLKRQDADAWTLYKI [SMG5], for which the protein stability index stood at 2.78 ± 0.4 under setting [1] and 2.9 ± 0.32 under setting [2].

EVLLGTPYDLAIDMWSLGCILVEM [DYRK1B]: the protein stability index by setting is: under setting [1], 2.79 ± 0.37; under setting [2], 2.96 ± 0.51.

As to EWDAMGGKVQDIKAREKDGKGRTA [FSD1], the protein stability index was determined as 5.16 ± 0.21 under setting [1] and 5.35 ± 0.14 under setting [2].

As for EYDTVTREVKVLLDQLRFPNGVQL [APMAP], the protein stability index by setting is: under setting [1], 2.01 ± 0.42; under setting [2], 2.22 ± 0.39.

For FALLADKAAQQGKQEENDVVEKLN [SNX8], the protein stability index amounted to 5.38 ± 0.13 under setting [1] and 5.33 ± 0.15 under setting [2].

On to FASGFKRAFKIKDFANTIPGHGGI [CDS1], for which the protein stability index is, setting by setting: under setting [1], 2.65 ± 0.43; under setting [2], 2.47 ± 0.66.

Take FATFCGGLAANGALQRLDLRNNQI [LRRC45]: the protein stability index by setting is: under setting [1], 2.36 ± 0.19; under setting [2], 2.37 ± 0.23.

In the case of FEAEPLPENTNRQLLLQFERLVVL [PI4K2A], the protein stability index turned out to be 2.12 ± 0.1 under setting [1] and 2.14 ± 0.26 under setting [2].

Take FEKHRWPPVWYLKEEDHYQRARKE [RHOBTB2]: the protein stability index is, setting by setting: under setting [1], 3.26 ± 0.3; under setting [2], 3.52 ± 0.5.

As to FFVANKYWRYDEYKRSMDPGYPKM [MMP1], the protein stability index reads like this: under setting [1], 2.15 ± 0.33; under setting [2], 2.16 ± 0.33.

Turning to FGAVTNVKVIRDFTTNKCKGFGFV [ELAVL3], the protein stability index is, setting by setting: under setting [1], 2.42 ± 0.21; under setting [2], 2.19 ± 0.38.

As for FGIGSEILKNLSQVAMRCRCSSMH [SAT1], the protein stability index by setting is: under setting [1], 2.56 ± 0.58; under setting [2], 2.45 ± 0.48.

Consider FGPGQTLLSSVHVLDLEARGYIKP [ALKBH7], for which the protein stability index by setting is: under setting [1], 2.43 ± 0.24; under setting [2], 2.67 ± 0.3.

FHLAPARAGHHPNQYATCRLCGRQ [ZBED2]: the protein stability index reads like this: under setting [1], 2.58 ± 0.41; under setting [2], 3.14 ± 0.68.

Regarding FIGLEVVAQLFNCMVGLLLIALLT [ATL3], the protein stability index runs as follows: under setting [1], 3.08 ± 0.3; under setting [2], 3.39 ± 0.28.

Sequence FIPAKTGKDVATQILEGELFDFDL [RSPH3] yielded a protein stability index under setting [1] of 2.7 ± 0.48 and a protein stability index under setting [2] of 2.89 ± 0.56.

For FLHVRKATRAMGLLNTLSLAFVGG [TMEM175], the protein stability index under setting [1] stood at 2.16 ± 0.59 and the protein stability index under setting [2] came to 1.98 ± 0.35.

Regarding FLLSQQTDLPECEQSSARQKASLL [TCF25], the protein stability index by setting is: under setting [1], 3.78 ± 0.52; under setting [2], 3.83 ± 0.12.

FLRGPSGPRFGPRNDKIKHVQNQV [VAMP4]: the protein stability index by setting is: under setting [1], 2.93 ± 0.27; under setting [2], 3.39 ± 0.31.

Turning to FLRQLRASHLGNELEGTEELCCVA [C2CD2L], the protein stability index reads like this: under setting [1], 2.98 ± 0.1; under setting [2], 3.19 ± 0.3.

With FLSDVTAAVKENQMTPTNLAVCLA [DLC1], the protein stability index turned out to be 2.72 ± 0.23 under setting [1] and 2.92 ± 0.29 under setting [2].

In the case of FLWGPRALIETSYVKVLHHMVKIS [MAGEA6], the protein stability index is, setting by setting: under setting [1], 2.14 ± 0.89; under setting [2], 2.59 ± 0.65.

FMYNLVQFLGFSWIFVNLTVRFCI [HACD3]: the protein stability index stood at 3.58 ± 1.3 under setting [1] and 2.82 ± 0.15 under setting [2].

Consider FPFSLLGLLALAIGLWGLAVKGSL [TSPAN10], for which the protein stability index by setting is: under setting [1], 3.33 ± 0.37; under setting [2], 3.14 ± 0.27.

FRVLCTAPAKYTVFDAEGYVKPQS [MOSPD3]: the protein stability index reads like this: under setting [1], 2.02 ± 0.35; under setting [2], 2.19 ± 0.53.

As for FSVVRRCMKIPTGQEYAAKIINTK [CAMK2D], the protein stability index under setting [1] was 2.3 ± 0.1 and the protein stability index under setting [2] came out at 2.31 ± 0.36.

For the sequence FTAKHANKVKVLDAPVPDCLGVHC [FSD1], the protein stability index came out at 2.75 ± 0.26 under setting [1] and 3.04 ± 0.31 under setting [2].

As for FTGELAESRQTEVVIRDIDERAME [KLHL20], the protein stability index turned out to be 4.69 ± 0.21 under setting [1] and 4.89 ± 0.33 under setting [2].

Sequence FTQNQIEVLENVFRVNCYPGIDIR [HESX1] displayed a protein stability index under setting [1] of 2.42 ± 0.4 and a protein stability index under setting [2] of 2.14 ± 0.68.

As for FYLPSSPNLSLASEDEEEYESGYA [SMG5], the protein stability index was 4.55 ± 0.067 under setting [1] and 4.59 ± 0.21 under setting [2].

For the sequence FYSAEIICAIEYLHSKEIVYRDLK [PRKX], the protein stability index turned out to be 2.96 ± 0.76 under setting [1] and 2.51 ± 0.45 under setting [2].

GAAESPYGHPAGIDYKTTTILLDG [RAB40B]: the protein stability index runs as follows: under setting [1], 4 ± 0.067; under setting [2], 3.96 ± 0.25.

For GAERKAALCELLEKETQIIASIGR [IQUB], the protein stability index by setting is: under setting [1], 3.21 ± 0.61; under setting [2], 3.2 ± 0.2.

Turning to GANINAFDKKDRRALHWAAYMGHL [ANKRD44], the protein stability index is, setting by setting: under setting [1], 2.3 ± 0.21; under setting [2], 2.36 ± 0.31.

The values are drawn from the supplement of paper PMC10567573.
